Measured values reported in patent publication US20190177366A1.
Blank lines part the entries; values can stand above or below the binder they belong to. Square brackets hold non-standard residues; d marks the D form. * marks the point of attachment. hArg = N=C(N)NCCCC[C@H](N)C(=O)O; Pentanoyl = CCCCC(=O)*

Biological target: PCSK9Δhelix (human) (UniProt Q8NBP7)
Test: TR-FRET competition, Ab20 as competitor

Chain of PCSK9Δhelix (human) (Q8NBP7 31-152 limits assumed, stated change not applied, chain 1 of 2): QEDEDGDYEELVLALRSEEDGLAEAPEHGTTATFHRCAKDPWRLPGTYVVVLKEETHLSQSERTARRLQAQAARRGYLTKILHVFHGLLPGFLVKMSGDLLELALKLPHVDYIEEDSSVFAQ
Chain of PCSK9Δhelix (human) (Q8NBP7 other isoform, or with tags, fused parts or gaps mutant limits assumed, chain 2 of 2): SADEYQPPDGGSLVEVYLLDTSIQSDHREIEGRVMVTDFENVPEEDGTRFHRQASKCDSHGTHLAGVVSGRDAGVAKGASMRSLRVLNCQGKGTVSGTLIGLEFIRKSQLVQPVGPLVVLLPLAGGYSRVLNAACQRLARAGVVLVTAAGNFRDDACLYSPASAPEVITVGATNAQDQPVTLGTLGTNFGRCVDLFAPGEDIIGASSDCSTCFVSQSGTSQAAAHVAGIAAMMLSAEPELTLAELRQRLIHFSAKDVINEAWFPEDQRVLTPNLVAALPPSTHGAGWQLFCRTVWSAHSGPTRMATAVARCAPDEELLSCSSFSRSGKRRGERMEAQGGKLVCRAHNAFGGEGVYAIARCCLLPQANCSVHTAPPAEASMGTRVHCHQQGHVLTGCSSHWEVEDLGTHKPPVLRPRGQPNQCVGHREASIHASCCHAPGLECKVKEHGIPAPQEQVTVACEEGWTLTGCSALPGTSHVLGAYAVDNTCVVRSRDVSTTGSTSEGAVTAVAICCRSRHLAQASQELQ

- IC50: < 10 µM
B1: Compound 111 (peptide)
peptide: Pentanoyl-WNLVRIGLLR-NH2
SMILES: CCCCC(=O)N[C@@H](Cc1c[nH]c2ccccc12)C(=O)N[C@@H](CC(N)=O)C(=O)N[C@@H](CC(C)C)C(=O)N[C@H](C(=O)N[C@@H](CCCNC(=N)N)C(=O)N[C@H](C(=O)NCC(=O)N[C@@H](CC(C)C)C(=O)N[C@@H](CC(C)C)C(=O)N[C@@H](CCCNC(=N)N)C(N)=O)[C@@H](C)CC)C(C)C

- fold increase of inhibition against the arginine peptide (Compound 112): 5 fold
B2: Compound 118 (peptide)
peptide: Pentanoyl-WNLV[hArg]IGLTR-NH2
SMILES: CCCCC(=O)N[C@@H](Cc1c[nH]c2ccccc12)C(=O)N[C@@H](CC(N)=O)C(=O)N[C@@H](CC(C)C)C(=O)N[C@H](C(=O)N[C@@H](CCCCNC(=N)N)C(=O)N[C@H](C(=O)NCC(=O)N[C@@H](CC(C)C)C(=O)N[C@H](C(=O)N[C@@H](CCCNC(=N)N)C(N)=O)[C@@H](C)O)[C@@H](C)CC)C(C)C
